# Laboratory results published in patent publication US20240158448A1 (published 2024).
# No end group written: not given here. FAM = 5(6)-carboxyfluorescein
# Assays:
# [1] = biological target: T1, human SIRPα expressed on cells (PMA-differentiated THP-1 macrophages; A549 cells) (human, UniProt P78324 31-504); experiment: fluorescence microscopy saturation binding; live THP-1 macrophages
# [2] = biological target: T2, mouse SIRPα expressed on J774A.1 macrophages (mouse, UniProt P97797 32-513); experiment: fluorescence microscopy saturation binding; live J774A.1 macrophages
# T2 chain: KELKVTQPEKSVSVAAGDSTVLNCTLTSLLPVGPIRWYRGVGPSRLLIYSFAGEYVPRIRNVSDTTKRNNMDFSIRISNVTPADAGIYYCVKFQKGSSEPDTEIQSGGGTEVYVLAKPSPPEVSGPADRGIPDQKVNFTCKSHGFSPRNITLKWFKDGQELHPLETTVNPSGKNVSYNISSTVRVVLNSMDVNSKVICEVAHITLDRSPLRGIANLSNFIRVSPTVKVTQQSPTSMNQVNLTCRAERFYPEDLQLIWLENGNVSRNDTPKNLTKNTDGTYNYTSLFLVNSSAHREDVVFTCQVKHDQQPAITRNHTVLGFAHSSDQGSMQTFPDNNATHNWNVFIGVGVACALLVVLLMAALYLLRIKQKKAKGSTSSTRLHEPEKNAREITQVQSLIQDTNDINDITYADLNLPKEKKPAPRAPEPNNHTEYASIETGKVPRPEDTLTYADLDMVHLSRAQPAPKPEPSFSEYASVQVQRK
# [3] = biological target: T1, human SIRPα expressed on cells …; experiment: fluorescence microscopy saturation binding; live THP-1 macrophages, corrected by subtracting nS-X-FAM
# [4] = biological target: T1, human SIRPα expressed on cells …; experiment: fluorescence microscopy saturation binding; fixed THP-1 macrophages
binder,measurement,setting,value
K(FAM)LETVEGTR-NH2 [FAM-labeled nS-X],Kd,[1],916 µM
K(FAM)VTELTREG-NH2 [FAM-labeled nS-wt],Kd,[2],138 µM
same,Kd,[3],52 µM
same,Kd,[1],148 µM
K(FAM)VTELVREG-NH2 [FAM-labeled nS-V],Kd,[2],203 µM
same,Kd,[3],123 µM
same,Kd,[1],161 µM
same,Kd,[4],32 µM
K(FAM)VTELFREG-NH2 [FAM-labeled nS-F],Kd,[3],93 µM
same,Kd,[1],195 µM
